From US20180371066A1 (C2N DIAGNOSTICS, published 2018)

Key:
[1] = biological target: T1, recombinant human Tau-412 protein (human, UniProt P10636-7 1-412); experiment: SPR Biacore T200, mAb captured on Protein A, Tau-412 analyte, 1-to-1 model, chip A11/3
T1 construct: Analyte of the SPR study; also called human tau (1N4R, 412 amino acids)
Experimental: (§1) Kinetic data was obtained at a flow rate of 40 μL/min to minimize any potential mass transfer effects. Two repeats of the blank (no antigen) and the 2.5 nM concentration of the analyte were programmed into the kinetic run in order to check the stability of both the surface and analyte over the kinetic cycles. For the initial kinetic runs, 2-fold dilutions of Tau-412 from 40 nM to 0.156 nM were run. For kinetic analysis and on subsequent runs, an analyte range of 20 nM to 0.625 nM was selected. This range covered multiple analyte concentrations both above and below the reported KD.
(§2) The association phase was monitored for 500 seconds to allow some of the higher concentrations of analyte to reach steady state. In order to observe a sufficient signal decrease (>10%) during the dissociation phase of the kinetic cycle, dissociation was measured for 1200 seconds. As discussed in Section 5, the Fcs were allowed to stabilize for 600 seconds after each regeneration step. The signal from the reference channel Fc1 was subtracted from that of Fc2, Fc3 and Fc4.
(§3) The kinetic parameters for the interaction of Tau-412 with the 7 mAbs as measured using the Protein A capture system on the Biacore T200 are shown in Table F-2. To correct for differences in the capture level of the antibody between each binding cycle, a local Rₘₐₓ parameter was used in the 1-to-1 binding model. Kinetic analysis was performed in three independent runs using fresh preparations of Tau-412 and antibody. Run 1 and runs 2+3 used different vials of the antigen Tau-412; therefore the reported errors associated with the mean response probably represent variation in preparation of the analyte and differences in assay set-up and run. From run 1 to runs 2+3, the amount of antibody injected was adjusted to try to get closer to the target 300 RU capture levels.

human tau [2] = biological target: T2, human tau (human, UniProt P10636 2-60); experiment: competition ELISA on plate-coated human tau against biotinylated HJ8.5; IC50 normalised to chimeric HJ8.5 (reference row); column External
T2 construct: also called soluble human tau; human tau protein

human tau [3] = biological target: T2, human tau; experiment: competition ELISA on plate-coated human tau against biotinylated HJ8.5; IC50 normalised to chimeric HJ8.5 (reference row); column C2N Run 1
[4] = biological target: T1, recombinant human Tau-412 protein; experiment: SPR Biacore T200, Protein A capture, mean of the Chimeric runs
Experimental: as §1, §2, §3

[5] = biological target: T1, recombinant human Tau-412 protein; experiment: SPR Biacore T200, mAb captured on Protein A, Tau-412 analyte, 1-to-1 model, chip A11/2
Experimental: as §1, §2, §3

human tau [6] = biological target: T2, human tau; experiment: competition ELISA on plate-coated human tau against biotinylated HJ8.5; IC50 normalised to chimeric HJ8.5 (reference row); column C2N Run 2
[7] = biological target: T1, recombinant human Tau-412 protein; experiment: SPR Biacore T200, mAb captured on Protein A, Tau-412 analyte, 1-to-1 model, chip A11/1
Experimental: as §1, §2, §3

PEP_2875822 = biological target: T3, PEP_2875822; experiment: peptide array of 15-mers of human tau probed with the antibody; label LIN
T3 peptide: KDQGGYTMHQDQEGD

PEP_2875816 = biological target: T4, PEP_2875816; experiment: as above
T4 peptide: GDRKDQGGYTMHQDQ

PEP_2875826 = biological target: T5, PEP_2875826; experiment: as above
T5 peptide: QGGYTMHQDQEGDTD

PEP_2875810 = biological target: T6, PEP_2875810; experiment: as above
T6 peptide: YGLGDRKDQGGYTMH

PEP_2875806 = biological target: T7, PEP_2875806; experiment: as above
T7 peptide: GTYGLGDRKDQGGYT

PEP_2875818 = biological target: T8, PEP_2875818; experiment: as above
T8 peptide: DRKDQGGYTMHQDQE

PEP_2875804 = biological target: T9, PEP_2875804; experiment: as above
T9 peptide: AGTYGLGDRKDQGGY

PEP_2875820 = biological target: T10, PEP_2875820; experiment: as above
T10 peptide: RKDQGGYTMHQDQEG

PEP_2875824 = biological target: T11, PEP_2875824; experiment: as above
T11 peptide: DQGGYTMHQDQEGDT

PEP_2875814 = biological target: T12, PEP_2875814; experiment: as above
T12 peptide: LGDRKDQGGYTMHQD

PEP_2875812 = biological target: T13, PEP_2875812; experiment: as above
T13 peptide: GLGDRKDQGGYTMHQ

PEP_2875808 = biological target: T14, PEP_2875808; experiment: as above
T14 peptide: TYGLGDRKDQGGYTM

human tau [8] = biological target: T2, human tau; experiment: competition ELISA on plate-coated human tau against biotinylated HJ8.5; IC50 normalised to chimeric HJ8.5; column External
human tau [9] = biological target: T2, human tau; experiment: competition ELISA on plate-coated human tau against biotinylated HJ8.5; IC50 normalised to chimeric HJ8.5; column C2N Run 2
rhesus monkey tau = biological target: T15, rhesus monkey tau (rhesus monkey, UniProt P57786 2-60); experiment: direct ELISA on 96-well plates coated with tau at varied concentration; OD 650nm
T15 construct: also called rhesus tau
T15 sequence: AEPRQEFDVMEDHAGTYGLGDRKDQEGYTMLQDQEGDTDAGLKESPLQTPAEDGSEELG
Experimental: FIG. 10 illustrates the binding results for different anti human tau antibodies to either human or rhesus monkey tau. Murine anti human tau antibodies HJ8.5 and HJ8.7 alongside humanized variant VH1/VK2 (also referred to as C₂N-8E12) were tested. […] In order to determine whether these amino acid difference between the two species of tau, impacts the ability of antibodies HJ8.5/C₂N-8E12 to bind the following experiment was performed. Binding of C₂N-8E12, HJ8.5 (murine precursor of C₂N-8E12), and HJ8.7 (murine anti-human tau antibody that binds to an epitope of tau where the human and rhesus amino acid sequence is 100% conserved) to human and rhesus tau by coating 96 well ELISA plates with either human or rhesus tau at various concentrations was measured. […] As expected, HJ8.7 binds to both human and rhesus tau.

human tau [10] = biological target: T2, human tau; experiment: competition ELISA on plate-coated human tau against biotinylated HJ8.5; IC50 normalised to chimeric HJ8.5; column C2N Run 1
[11] = biological target: T16, first 32 amino acids of human tau, expressed on yeast (human, UniProt P10636 1-32); experiment: yeast display, immunofluorescence
T16 construct: range 1-32; Yeast display scaffold not described
T16 chain (looked up): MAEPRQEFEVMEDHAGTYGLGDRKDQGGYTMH
Experimental: The epitope was mapped using yeast display. For this method, various peptides covering the sequence of human tau were expressed using by yeast. Binding of the HJ8.5 antibody to yeast in culture was measured by immunofluorescence. Binding to yeast, expressing variants of tau that included the first 34 amino acids was observed, but no binding, if the yeast only expressed the first 32 amino acids of tau.

PEP_2875811 = biological target: T17, PEP_2875811; experiment: peptide array of 15-mers of human tau probed with the antibody; label LIN.AA (double alanine)
T17 peptide: YGLGDRKDQAAYTMH

PEP_2875817 = biological target: T18, PEP_2875817; experiment: as above
T18 peptide: GDRKDQGGYAAHQDQ

PEP_2875827 = biological target: T19, PEP_2875827; experiment: as above
T19 peptide: QGGYTMHQDAAGDTD

PEP_2875809 = biological target: T20, PEP_2875809; experiment: as above
T20 peptide: TYGLGDRKDAAGYTM

PEP_2875821 = biological target: T21, PEP_2875821; experiment: as above
T21 peptide: RKDQGGYTMAADQEG

PEP_2875823 = biological target: T22, PEP_2875823; experiment: as above
T22 peptide: KDQGGYTMHAAQEGD

PEP_2875825 = biological target: T23, PEP_2875825; experiment: as above
T23 peptide: DQGGYTMHQAAEGDT

PEP_2875819 = biological target: T24, PEP_2875819; experiment: as above
T24 peptide: DRKDQGGYTAAQDQE

[12] = biological target: T1, recombinant human Tau-412 protein; experiment: SPR Biacore T200, Protein A capture, mean of the VH3/VK3 runs
Experimental: as §1, §2, §3

T2 sequence (P10636 2-60 limits assumed): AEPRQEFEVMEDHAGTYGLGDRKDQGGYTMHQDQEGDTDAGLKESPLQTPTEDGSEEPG

B1: chimeric HJ8.5 monoclonal antibody (antibody, V domains shown)
VH: EVKVEESGGGLVQPGGSMKLSCVVSGFTFSNYWVNWVRQSPEKGLEWVAQIRLKSDNYATHYEESVKGRFTISRDDSKSSVYLQMNNLRAEDSGIYYCTNWEDYWGQGTTLTVSS
VL: DIVLTQSPASLAVSLGQRATISCRASQSVSTSRYSYIHWYQQKPGQPPKLLIKYASNLESGVPARFSGSGSGTDFTLNIHPLEEEDAATYYCHHSWEIPLTFGAGTKLELK
notes: also called chimera; chimeric antibody
- Kd [1]: 1.94 nM
- koff [1]: 0.0014 s⁻¹
- kon [1]: 723000 M⁻¹ s⁻¹
- IC50 (Relative to Chimera) (human tau [2]): 1 relative to Chimera
- IC50 (Relative to Chimera) (human tau [3]): 1 relative to Chimera
- Kd [4]: 1.99 nM
- koff [4]: 0.00143 s⁻¹
- kon [4]: 721000 M⁻¹ s⁻¹
- Kd [5]: 1.79 nM
- koff [5]: 0.0013 s⁻¹
- kon [5]: 722000 M⁻¹ s⁻¹
- IC50 (Relative to Chimera) (human tau [6]): 1 relative to Chimera
- Kd [7]: 2.23 nM
- koff [7]: 0.0016 s⁻¹
- kon [7]: 718000 M⁻¹ s⁻¹

B2: murine anti-tau antibody HJ8.5 (antibody, V domains shown)
VH: B1 VH
VL: B1 VL
notes: Murine monoclonal antibody; also called parent antibody; murine parent
- Binding Signal (PEP_2875822): 2700
- Binding Signal (PEP_2875816): 2650
- Binding Signal (PEP_2875826): 399
- Binding Signal (PEP_2875810): 2840
- Binding Signal (PEP_2875806): 2640
- Binding Signal (PEP_2875818): 2690
- Binding Signal (PEP_2875804): 427
- Binding Signal (PEP_2875820): 2700
- Binding Signal (PEP_2875824): 2680
- Binding Signal (PEP_2875814): 2840
- Binding Signal (PEP_2875812): 2820
- Binding Signal (PEP_2875808): 2640
- IC50 (Relative to Chimera) (human tau [8]): 1.07 relative to Chimera
- IC50 (Relative to Chimera) (human tau [9]): 0.99 relative to Chimera
- binding result (rhesus monkey tau): no binding
- IC50 (Relative to Chimera) (human tau [10]): 0.79 relative to Chimera
- binding result [11]: no binding
- Binding Signal (PEP_2875811): 1780
- Binding Signal (PEP_2875817): 2640
- Binding Signal (PEP_2875827): 427
- Binding Signal (PEP_2875809): 2810
- Binding Signal (PEP_2875821): 2710
- Binding Signal (PEP_2875823): 2710
- Binding Signal (PEP_2875825): 2710
- Binding Signal (PEP_2875819): 2700

B3: VH3/VK3 humanized anti-tau antibody (antibody, human IgG4 S228P, kappa)
heavy: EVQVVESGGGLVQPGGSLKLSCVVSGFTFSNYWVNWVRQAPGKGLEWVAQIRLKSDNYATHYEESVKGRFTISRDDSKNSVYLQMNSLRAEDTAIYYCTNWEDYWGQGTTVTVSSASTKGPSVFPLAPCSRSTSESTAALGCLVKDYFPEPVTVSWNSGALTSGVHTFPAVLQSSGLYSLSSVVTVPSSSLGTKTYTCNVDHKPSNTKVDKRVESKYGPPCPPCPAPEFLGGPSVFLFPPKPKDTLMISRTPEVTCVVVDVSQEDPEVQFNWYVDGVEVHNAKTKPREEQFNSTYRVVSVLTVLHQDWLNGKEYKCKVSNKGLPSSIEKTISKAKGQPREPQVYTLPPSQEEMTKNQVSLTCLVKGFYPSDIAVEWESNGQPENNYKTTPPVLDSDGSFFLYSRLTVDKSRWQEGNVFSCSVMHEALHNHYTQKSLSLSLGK
light: DIVLTQSPDSLAVSLGERATISCRASQSVSTSRYSYIHWYQQKPGQPPKLLIKYASNLESGVPSRFSGSGSGTDFTLTISSLQPEDFATYYCHHSWEIPLTFGQGTKLEIKRTVAAPSVFIFPPSDEQLKSGTASVVCLLNNFYPREAKVQWKVDNALQSGNSQESVTEQDSKDSTYSLSSTLTLSKADYEKHKVYACEVTHQGLSSPVTKSFNRGEC
notes: Humanized variant of HJ8.5
- IC50 (Relative to Chimera) (human tau [8]): 0.93 relative to Chimera
- IC50 (Relative to Chimera) (human tau [9]): 1.34 relative to Chimera
- Kd [12]: 1.92 nM
- koff [12]: 0.000507 s⁻¹
- kon [12]: 265000 M⁻¹ s⁻¹
- Kd [5]: 1.65 nM
- koff [5]: 0.000454 s⁻¹
- kon [5]: 276000 M⁻¹ s⁻¹
- IC50 (Relative to Chimera) (human tau [10]): 0.84 relative to Chimera
- Kd [7]: 2.2 nM
- koff [7]: 0.000559 s⁻¹
- kon [7]: 254000 M⁻¹ s⁻¹
